Measurements reported in patent publication US20200181597A1, “Composition and Application of Arginine-depleting Agents for Cancer, Obesity, Metabolic Disorders, and Related Complications and Comorbidities” (THE HONG KONG POLYTECHNIC UNIVERSITY, priority 2018, published 2020).
One block for each molecule: values may come before it.

Experiments:
[1] = literature; cited from earlier work
A375 = assay: MTT cytotoxicity of ADI, BCA, ADC; assay type: cell-based, human; conditions: A375, 72 h
Description: (§1) For cell proliferation assay, cancer cells (5×10^3) in a volume of 100 μL of growth medium were seeded to each well of a 96-well plate and incubated for 24 h. The culture medium was replenished by arginine free medium (AFM) supplemented with different concentrations of arginine, fresh medium containing various concentrations of different arginine depleting enzymes as well as using these enzymes in combination with citrulline. The plate was incubated for an additional 1-3 days at 37° C. in an incubator containing a humidified atmosphere of 95% air and 5% CO2.
(§2) Quantitative cell proliferation assays were performed using MTT (3-[4,5-dimethylthiazol-2-yl]-2,5-diphenyl tetrazolium bromide) assays as widely described elsewhere. The amount of arginine depleting enzyme required to kill 50% of the cells in a culture was defined as IC50.
(§3) The cytotoxicities of arginine deiminase (ADI), bacterial arginase (BCA) and arginine decarboxylase (ADC) were determined in a comparative study in five tumor cell lines: A375, HeLa, BxPC-3, PANC-1, and HCT116.
(§4) Table 6. IC50 and maximum cytotoxicity of ADI, BCA and ADC on five human cancer cell lines. Cells were treated for 72 h before MTT analysis. Data are the mean of three experiments performed in triplicate. IC50 value is defined as the amount of enzyme needed to achieve 50% inhibition of cell viability. Maximum cytotoxicity is expressed as the maximum percentage of nonviable cells achieved by each enzyme. ADI-resistant cells are defined as cells of which more than 50% survive under the maximum dose of ADI tested.

BxPC-3 = assay: MTT cytotoxicity of ADI, BCA, ADC; assay type: cell-based, human; conditions: BxPC-3, 72 h
Description: as §1, §2, §3, §4

HCT116 = assay: MTT cytotoxicity of ADI, BCA, ADC; assay type: cell-based, human; conditions: HCT116, 72 h
Description: as §1, §2, §3, §4

HeLa = assay: MTT cytotoxicity of ADI, BCA, ADC; assay type: cell-based, human; conditions: 72 h
Description: as §1, §2, §3, §4

PANC-1 = assay: MTT cytotoxicity of ADI, BCA, ADC; assay type: cell-based, human; conditions: PANC-1, 72 h
Description: as §1, §2, §3, §4

[2] = biological target: human serum albumin (HSA), P02768
[3] = biological target: human serum albumin (HSA) (human, UniProt P02768 25-609); assay: non-denaturing PAGE; 30 pmol HSA titrated with 7.5-120 pmol fusion protein
[4] = biological target: human serum albumin (HSA) (Homo sapiens, UniProt P02768); assay: Binding to HSA on non-denaturing PAGE; conditions: fixed HSA titrated at various molar ratios
Description: When ABD is fused to rhArg or BCA, it is important for the fusion protein to retain both the albumin binding capacity and the enzymatic activity. […] The reaction mixtures were analyzed in their native condition on non-denaturing PAGE where the proteins were separated by size and conformation.
In FIG. 7, the mobility of each of HSA and N-ABD-rhArg (SEQ ID NO: 49) alone are shown in Lanes 2 and 3 of the non-denaturing PAGE, respectively (FIG. 7). A fixed amount of HSA (30 pmoles) was titrated against N-ABD-rhArg (SEQ ID NO: 49) at various molar ratios and the results are illustrated in Lanes 5-9. […] In FIG. 8, the mobility of each of HSA and BHA (SEQ ID NO: 75) alone are shown in Lanes 6 and 7 of the non-denaturing PAGE, respectively (FIG. 8). A fixed amount of HSA (60 pmoles) was titrated against BHA (SEQ ID NO: 75) at various molar ratios and the results are illustrated in Lanes 1-5.

plasma arginine = assay: Plasma arginine after single i.p. dose of N-ABD-rhArg (Biochrom 30); assay type: in vivo, BALB/c mice
Description: FIG. 10 illustrates plasma arginine concentrations, measured using the Biochrom 30 Amino Acid Analyzer, of BALB/c mice after receiving intraperitoneal injection of a single dose of (A) 125U; (B) 250U; and (C) 500U of N-ABD-rhArg (SEQ ID NO: 49). N-ABD-rhArg (SEQ ID NO: 49) was injected at day 0.
Fifteen female BALB/c mice (10 weeks of age) were used in this study. They were kept in groups of five per cage. A single dose of N-ABD-rhArg (SEQ ID NO: 49) (500 U, 250 U, and 125 U, respectively) was administered to the mice via i.p. injection. Blood samples were collected from the saphenous vein using heparinized capillary tubes, and were centrifuged at 800×g to obtain plasma. Sixteen microliters of plasma sample was subjected to measurement of L-arginine concentration using the Biochrom 30 Amino Acid Analyzer. […] In comparing with BHA (SEQ ID NO: 75) (FIG. 9), N-ABD-rhArg (SEQ ID NO: 49) can deplete arginine to a very low level in the mice for exceptionally longer period, which highlights the importance of the requirement for rational design of the fusion protein.

[5] = system: 4T1 breast cancer xenograft; assay: 4T1 breast cancer xenograft in nude mice; assay type: in vivo, female nude mice
Description: (§5) For the aggressive 4T1 breast cancer cell xenograft model studies, 10 female nude mice (11-12 weeks of age) were used. They were kept in groups of five per cage and provided food and water ad libitum. The 4T1 cancer cells were harvested by trypsinization and washed twice with 1×PBS and resuspended in 1×PBS for inoculation. The cancer cells (1×10^6 cells of 4T1) were injected subcutaneously into the left flank of the mice. […] They were injected with either 500U (3.2 mg, 230 μL) N-ABD-rhArg (SEQ ID NO: 49) or 1×PBS once per week. Blood samples were collected from the saphenous vein. Tumor size and the body weight of mice were monitored regularly. The tumor volume was estimated by the following equation: […]
The mice were sacrificed after 16 days of cancer cell inoculation (i.e. 13 days after starting of the experiment) because of necrosis of tumor in the PBS-injected control group. After being sacrificed, tumors were collected from the mice and the weight of the tumor was measured. Lungs were also collected and washed with 1×PBS. The lungs were fixed in Bouin's solution overnight and washed with 1×PBS after fixation. Lung metastatic nodules were counted.

serum arginine = assay: Serum arginine in 4T1 xenograft nude mice (Biochrom 30); assay type: in vivo; conditions: BDL: Below Detection Level
Description: as §5
Importantly, 500U of the albumin-binding arginase N-ABD-rhArg (SEQ ID NO: 49) depleted arginine to a level below the detection limit of the Biochrom 30 Amino Acid Analyzer (3 μM) for at least 10 days in BALB/c mice (FIG. 10). Therefore, 500 U of N-ABD-rhArg (SEQ ID NO: 49) was administered via i.p. injection once per week to the 4T1 breast cancer xenograft nude mice for efficacy study.

[6] = system: 4T1 breast cancer allograft; assay: 4T1 breast cancer allograft study; assay type: in vivo, female nude mice
Description: In another 4T1 breast cancer allograft study, female nude mice (5-6 weeks of age) were used. They were kept in groups of five per cage and provided food and water ad libitum. Cells of 4T1 breast cancer ([…]) were injected subcultuaneously into the right flank of the mice. […] There were one control group (n=8) and three experimental groups, including 500U PEGylated His-rhArg (SEQ ID NO: 101) (n=8), 500U N-ABD-rhArg (SEQ ID NO: 49) (n=6) and 250U N-ABD-rhArg (SEQ ID NO: 49) (n=8). Mice in the control group were injected with 1×PBS weekly. For the 500U ABD-rhArg group and the 250U ABD-rhArg group, mice were injected with 500U and 250U ABD-rhArg once a week, respectively; one group was injected with 500U PEG-rhArg once per week. The mice were sacrificed after 24 days of inoculation (i.e. 14 days after starting of experiment) because of necrosis of tumor in PBS control group. After sacrificing, the mice were dissected. Tumors were collected from the mice and measured their weight. Lungs were also collected and washed with 1×PBS. The lungs were fixed in Bouin's solution overnight and washed with 1×PBS after fixation. Lung metastatic nodules were counted.

B1: human arginase: unmodified human arginase (Georgiou et al.) (protein, UniProt P05089 1-322, looked up)
Arginase-1: MSAKSRTIGIIGAPFSKGQPRGGVEEGPTVLRKAGLLEKLKEQECDVKDYGDLPFADIPNDSPFQIVKNPRSVGKASEQLAGKVAEVKKNGRISLVLGGDHSLAIGSISGHARVHPDLGVIWVDAHTDINTPLTTTSGNLHGQPVSFLLKELKGKIPDVPGFSWVTPCISAKDIVYIGLRDVDPGEHYILKTLGIKYFSMTEVDRLGIGKVMEETLSYLLGRKKRPIHLSFDVDGLDPSFTPATGTPVVGGLTYREGLYITEEIYKTGLLSGLDIMEVNPSLGKTPEEVTRTVNTAVAITLACFGLAREGNHKPIDYLNPPK
half-life / clearance in circulation [1]: a few minutes

B2: BCA: bacterial arginase (Bacillus caldovelox arginase) (protein, UniProt P53608 1-299, looked up)
Arginase: MKPISIIGVPMDLGQTRRGVDMGPSAMRYAGVIERLERLHYDIEDLGDIPIGKAERLHEQGDSRLRNLKAVAEANEKLAAAVDQVVQRGRFPLVLGGDHSIAIGTLAGVAKHYERLGVIWYDAHGDVNTAETSPSGNIHGMPLAASLGFGHPALTQIGGYSPKIKPEHVVLIGVRSLDEGEKKFIREKGIKIYTMHEVDRLGMTRVMEETIAYLKERTDGVHLSLDLDGLDPSDAPGVGTPVIGGLTYRESHLAMEMLAEAQIITSAEFVEVNPILDERNKTASVAVALMGSLFGEKLM
IC50 (A375): 0.12 µg/mL
Maximum cytotoxicity (A375): 86.92%
IC50 (BxPC-3): 0.44 µg/mL
Maximum cytotoxicity (BxPC-3): 84.82%
IC50 (HCT116): 0.22 µg/mL
Maximum cytotoxicity (HCT116): 81.05%
IC50 (HeLa): 1.25 µg/mL
Maximum cytotoxicity (HeLa): 61.14%
IC50 (PANC-1): 1.81 µg/mL
Maximum cytotoxicity (PANC-1): 63.01%

B3: BCA-6xHis-ABD fusion protein BHA (SEQ ID NO: 75) (protein)
chain: MKPISIIGVPMDLGQTRRGPDMGPSAMRYAGVIERLERLHYDIEDLGDIPIGKAERLHEQGDSRLRNLKAVAEANEKLAAAVDQVVQRGRFPLVLGGDHSIAIGTLAGVAKHYERLGVIWYDAHGDVNTAETSPSGNIHGMPLAASLGFGHPALTQIGGYCPKIKPEHVVLIGVRSLDEGEKKFIREKGIKIYTMHEVDRLGMTRVMEETIAYLKERTDGVHLSLDLDGLDPSDAPGVGTPVIGGLTYRESHLAMEMLAEAQIITSAEFVEVNPILDERNKTASVAVALMGSLFGEKLMHHHHHHAQHDEAVDANSLAEAKVLANRELDKYGVSDYYKNLINNAKTVEGVKALIDEILAALP
specific activity (arginine catabolic activity, DAMO assay) at BHA:HSA mole ratios 1:10, 1:5, 1:1, 5:1 and 10:1 [2]: approximately 200 U/mg

binding result [3]: binds
B4: N-ABD-rhArg fusion protein (SEQ ID NO: 49) (enzyme)
chain: MHHHHHHDEAVDANSLAEAKVLANRELDKYGVSDYYKNLINNAKTVEGVKALIDEILAALPSGSNNNNNNGSGGMSAKSRTIGIIGAPFSKGQPRGGVEEGPTVLRKAGLLEKLKEQECDVKDYGDLPFADIPNDSPFQIVKNPRSVGKASEQLAGKVAEVKKNGRISLVLGGDHSLAIGSISGHARVHPDLGVIWVDAHTDINTPLTTTSGNLHGQPVSFLLKELKGKIPDVPGFSWVTPCISAKDIVYIGLRDVDPGEHYILKTLGIKYFSMTEVDRLGIGKVMEETLSYLLGRKKRPIHLSFDVDGLDPSFTPATGTPVVGGLTYREGLYITEEIYKTGLLSGLDIMEVNPSLGKTPEEVTRTVNTAVAITLACFGLAREGNHKPIDYLNPPK
notes: It was expressed in E. coli ER2566 and purified on a Ni-IDA column

binding to HSA (free HSA reduced in a proportional manner) [4]: specific binding
B5: N-ABD-rhArg: albumin binding domain (ABD) fused N-terminally to recombinant human arginase I, SEQ ID NO: 49 (protein)
chain: B4 chain
modifications: N-ABD-rhArg, Synthesized in the Lab
time serum arginine below detection limit (3 μM) (plasma arginine; single i.p. dose 125U): at least 3 days
time serum arginine below detection limit (3 μM) (plasma arginine; single i.p. dose 250U): at least 7 days
growth of 4T1 breast cancer xenograft ([5]; 500U once per week): inhibit the growth
Number of metastatic nodules found in lungs ([5]; 500 U once per week, n = 4 (PBS control: 3)): 0
% of metastasis free animals ([5]; 500 U once per week, n = 4 (PBS control: 50%)): 100%
estimated tumor volume vs control group ([5]; 500U once per week, 12 days and 13 days after starting): significant difference
Arginine Concentration (serum), individual mice 1-4 (serum arginine; Day 6, 500 U once per week): 0 (BDL) μM
Arginine Concentration (serum), individual mice 1-4 (serum arginine; Day 13, 500 U once per week): 0 (BDL) μM
growth of 4T1 solid tumor ([6]; 250U once per week): did not inhibit the growth
growth of 4T1 solid tumor ([6]; 500U once per week): inhibited the growth of the aggressive 4T1 solid tumor significantly
metastasis nodules from the lungs vs control group ([6]; 500U once per week): very significantly reduced
